Values of other authors in patent US9394339B2, “Stabilized formulations of peptides and proteins protecting against non-enzymatic degradation” (Lyotropic Therapeutics, Inc., priority 2007, dated 2016).

B1: -Lactalbumin (1B9O): human protein (protein, UniProt P00709 20-142, looked up)
Alpha-lactalbumin: KQFTKCELSQLLKDIDGYGGIALPELICTMFHTSGYDTQAIVENNESTEYGLFQISNKLWCKSSQVPQSRNICDISCDKFLDDDITDDIMCAKKILDIKGIDYWLAHKALCTEKLEQWLCEKL
B2: Thioltransferase (1JHB): human protein (protein, UniProt P35754 2-106, looked up)
Glutaredoxin-1: AQEFVNCKIQPGKVVVFIKPTCPYCRRAQEILSQLPIKQGLLEFVDITATNHTNEIQDYLQQLTGARTVPRVFIGKDCIGGCSDLVSLQQSGELLTRLKQIGALQ
B3: Ribonuclease 4 (1RNF): human protein (protein, UniProt P34096 29-147, looked up)
Ribonuclease 4: QDGMYQRFLRQHVHPEETGGSDRYCNLMMQRRKMTLYHCKRFNTFIHEDIWNIRSICSTTNIQCKNGKMNCHEGVVKVTDCRDTGSSRAPNCRYRAIASTRRVVIACEGNPQVPVHFDG
B4: O6-alkylguanine-DNA alkyltransferase (1EH6): human protein (protein, UniProt P16455 1-207, looked up)
Methylated-DNA--protein-cystei …: MDKDCEMKRTTLDSPLGKLELSGCEQGLHEIKLLGKGTSAADAVEVPAPAAVLGGPEPLMQCTAWLNAYFHQPEAIEEFPVPALHHPVFQQESFTRQVLWKLLKVVKFGEVISYQQLAALAGNPKAARAVGGAMRGNPVPILIPCHRVVCSSGAVGNYSGGLAVKEWLLAHEGHRLGKPGLGGSSGLAGAWLKGAGATSGSPPAGRN
B5: Thymidylate synthase (1HW3): human protein (protein, UniProt P04818 2-313, looked up)
Thymidylate synthase: PVAGSELPRRPLPPAAQERDAEPRPPHGELQYLGQIQHILRCGVRKDDRTGTGTLSVFGMQARYSLRDEFPLLTTKRVFWKGVLEELLWFIKGSTNAKELSSKGVKIWDANGSRDFLDSLGFSTREEGDLGPVYGFQWRHFGAEYRDMESDYSGQGVDQLQRVIDTIKTNPDDRRIIMCAWNPRDLPLMALPPCHALCQFYVVNSELSCQLYQRSGDMGLGVPFNIASYALLTYMIAHITGLKPGDFIHTLGDAHIYLNHIEPLKIQLQREPRPFPKLRILRKVEKIDDFKAEDFQIEGYNPHPTIKMEMAV
B6: Eosinophil cationic protein (1QMT): human protein (protein, UniProt P12724 28-160, looked up)
Eosinophil cationic protein: RPPQFTRAQWFAIQHISLNPPRCTIAMRAINNYRWRCKNQNTFLRTTFANVVNVCGNQSIRCPHNRTLNNCHRSRFRVPLLHCDLINPGAQNISNCTYADRPGRRFYVVACDNRDPRDSPRYPVVPVHLDTTI
B7: Lithostathine (1LIT): human protein (protein, UniProt P05451 23-166, looked up)
Lithostathine-1-alpha: QEAQTELPQARISCPEGTNAYRSYCYYFNEDRETWVDADLYCQNMNSGNLVSVLTQAEGAFVASLIKESGTDDFNVWIGLHDPKKNRRWHWSSGSLVSYKSWGIGAPSSVNPGYCVSLTSSTGFQKWKDVPCEDKFSFVCKFKN
B8: Phosphatidylethanolamine binding protein (1BD9): human protein (protein, UniProt P30086 2-187, looked up)
Phosphatidylethanolamine-bindi …: PVDLSKWSGPLSLQEVDEQPQHPLHVTYAGAAVDELGKVLTPTQVKNRPTSISWDGLDSGKLYTLVLTDPDAPSRKDPKYREWHHFLVVNMKGNDISSGTVLSDYVGSGPPKGTGLHRYVWLVYEQDRPLKCDEPILSNRSGDHRGKFKVASFRKKYELRAPVAGTCYQAEWDDYVPKLYEQLSGK
B9: Neutrophil (gelatinase) (1DFV): human protein (protein, UniProt P80188 21-198, looked up)
Neutrophil …: QDSTSDLIPAPPLSKVPLQQNFQDNQFQGKWYVVGLAGNAILREDKDPQKMYATIYELKEDKSYNVTSVLFRKKKCDYWIRTFVPGCQPGEFTLGNIKSYPGLTSYLVRVVSTNYNQHAMVFFKKVSQNREYFKITLYGRTKELTSELKENFIRFSKSLGLPENHIVFPVPIDQCIDG
B10: Phenylalanine hydroxylase (1DMW): human protein (protein, UniProt P00439 1-452, looked up)
Phenylalanine-4-hydroxylase: MSTAVLENPGLGRKLSDFGQETSYIEDNCNQNGAISLIFSLKEEVGALAKVLRLFEENDVNLTHIESRPSRLKKDEYEFFTHLDKRSLPALTNIIKILRHDIGATVHELSRDKKKDTVPWFPRTIQELDRFANQILSYGAELDADHPGFKDPVYRARRKQFADIAYNYRHGQPIPRVEYMEEEKKTWGTVFKTLKSLYKTHACYEYNHIFPLLEKYCGFHEDNIPQLEDVSQFLQTCTGFRLRPVAGLLSSRDFLGGLAFRVFHCTQYIRHGSKPMYTPEPDICHELLGHVPLFSDRSFAQFSQEIGLASLGAPDEYIEKLATIYWFTVEFGLCKQGDSIKAYGAGLLSSFGELQYCLSEKPKLLPLELEKTAIQNYTVTEFQPLYYVAESFNDAKEKVRNFAATIPRPFSVRYDPYTQRIEVLDNTQQLKILADSINSEIGILCSALQKIK
B11: Quinone reductase type 2 (1QR2): human protein (protein, UniProt P16083 1-231, looked up)
Ribosyldihydronicotinamide …: MAGKKVLIVYAHQEPKSFNGSLKNVAVDELSRQGCTVTVSDLYAMNLEPRATDKDITGTLSNPEVFNYGVETHEAYKQRSLASDITDEQKKVREADLVIFQFPLYWFSVPAILKGWMDRVLCQGFAFDIPGFYDSGLLQGKLALLSVTTGGTAEMYTKTGVNGDSRYFLWPLQHGTLHFCGFKVLAPQISFAPEIASEEERKGMVAAWSQRLQTIWKEEPIPCTAHWHFGQ
B12: Ribonuclease inhibitor (1A4Y): human protein (protein, UniProt P13489 2-461, looked up)
Ribonuclease inhibitor: SLDIQSLDIQCEELSDARWAELLPLLQQCQVVRLDDCGLTEARCKDISSALRVNPALAELNLRSNELGDVGVHCVLQGLQTPSCKIQKLSLQNCCLTGAGCGVLSSTLRTLPTLQELHLSDNLLGDAGLQLLCEGLLDPQCRLEKLQLEYCSLSAASCEPLASVLRAKPDFKELTVSNNDINEAGVRVLCQGLKDSPCQLEALKLESCGVTSDNCRDLCGIVASKASLRELALGSNKLGDVGMAELCPGLLHPSSRLRTLWIWECGITAKGCGDLCRVLRAKESLKELSLAGNELGDEGARLLCETLLEPGCQLESLWVKSCSFTAACCSHFSSVLAQNRFLLELQISNNRLEDAGVRELCQGLGQPGSVLRVLWLADCDVSDSSCSSLAATLLANHSLRELDLSNNCLGDAGILQLVESVRQPGCLLEQLVLYDIYWSEEMEDRLQALEKDKPSLRVIS
B13: Electron transfer flavoprotein (1EFV): human protein (protein, UniProt P13804 20-333; P38117 2-255, looked up)
Electron transfer … 1: QSTLVIAEHANDSLAPITLNTITAATRLGGEVSCLVAGTKCDKVAQDLCKVAGIAKVLVAQHDVYKGLLPEELTPLILATQKQFNYTHICAGASAFGKNLLPRVAAKLEVAPISDIIAIKSPDTFVRTIYAGNALCTVKCDEKVKVFSVRGTSFDAAATSGGSASSEKASSTSPVEISEWLDQKLTKSDRPELTGAKVVVSGGRGLKSGENFKLLYDLADQLHAAVGASRAAVDAGFVPNDMQVGQTGKIVAPELYIAVGISGAIQHLAGMKDSKTIVAINKDPEAPIFQVADYGIVADLFKVVPEMTEILKKK
Electron transfer … 2: AELRVLVAVKRVIDYAVKIRVKPDRTGVVTDGVKHSMNPFCEIAVEEAVRLKEKKLVKEVIAVSCGPAQCQETIRTALAMGADRGIHVEVPPAEAERLGPLQVARVLAKLAEKEKVDLVLLGKQAIDDDCNQTGQMTAGFLDWPQGTFASQVTLEGDKLKVEREIDGGLETLRLKLPAVVTADLRLNEPRYATLPNIMKAKKKKIEVIKPGDLGVDLTSKLSVISVEDPPQRTAGVKVETTEDLVAKLKEIGRI
B14: Uroporphyrinogen decarboxylase (1URO): human protein (protein, UniProt P06132 1-367, looked up)
Uroporphyrinogen decarboxylase: MEANGLGPQGFPELKNDTFLRAAWGEETDYTPVWCMRQAGRYLPEFRETRAAQDFFSTCRSPEACCELTLQPLRRFPLDAAIIFSDILVVPQALGMEVTMVPGKGPSFPEPLREEQDLERLRDPEVVASELGYVFQAITLTRQRLAGRVPLIGFAGAPWTLMTYMVEGGGSSTMAQAKRWLYQRPQASHQLLRILTDALVPYLVGQVVAGAQALQLFESHAGHLGPQLFNKFALPYIRDVAKQVKARLREAGLAPVPMIIFAKDGHFALEELAQAGYEVVGLDWTVAPKKARECVGKTVTLQGNLDPCALYASEEEIGQLVKQMLDDFGPHRYIANLGHGLYPDMDPEHVGAFVDAVHKHSRLLRQN
B15: Procarboxypeptidase A2 (1AYE): human protein (protein, UniProt P48052 19-419, looked up)
pro-form: LETFVGDQVLEIVPSNEEQIKNLLQLEAQEHLQLDFWKSPTTPGETAHVRVPFVNVQAVKVFLESQGIAYSIMIEDVQVLLDKENEEMLFNRRRERSGNFNFGAYHTLEEISQEMDNLVAEHPGLVSKVNIGSSFENRPMNVLKFSTGGDKPAIWLDAGIHAREWVTQATALWTANKIVSDYGKDPSITSILDALDIFLLPVTNPDGYVFSQTKNRMWRKTRSKVSGSLCVGVDPNRNWDAGFGGPGASSNPCSDSYHGPSANSEVEVKSIVDFIKSHGKVKAFITLHSYSQLLMFPYGYKCTKLDDFDELSEVAQKAAQSLRSLHGTKYKVGPICSVIYQASGGSIDWSYDYGIKYSFAFELRDTGRYGFLLPARQILPTAEETWLGLKAIMEHVRDHPY
modifications: pro-form
B16: Glucosamine-6-phosphate deaminase isomerase (1D9T): human protein (protein, UniProt P46926 1-289, looked up)
Glucosamine-6-phosphate …: MKLIILEHYSQASEWAAKYIRNRIIQFNPGPEKYFTLGLPTGSTPLGCYKKLIEYYKNGDLSFKYVKTFNMDEYVGLPRDHPESYHSFMWNNFFKHIDIHPENTHILDGNAVDLQAECDAFEEKIKAAGGIELFVGGIGPDGHIAFNEPGSSLVSRTRVKTLAMDTILANARFFDGELTKVPTMALTVGVGTVMDAREVMILITGAHKAFALYKAIEEGVNHMWTVSAFQQHPRTVFVCDEDATLELKVKTVKYFKGLMLVHNKLVDPLYSIKEKETEKSQSSKKPYSD

Details: aqueous solution, pH 7.4, 37° C., Tris-HCl buffer

Row | Molecule | T1/10 (time to 10% degradation by deamidation) [days]
1 | B1 | 20
2 | B2 | 71
3 | B3 | 20
4 | B4 | 46
5 | B5 | 0.41
6 | B6 | 65
7 | B7 | 74
8 | B8 | 100
9 | B9 | 44
10 | B10 | 33
11 | B11 | 50
12 | B12 | 68
13 | B13 | 29
14 | B14 | 0.15
15 | B15 | 23

Same assay, conditions: buffer, pH 7.4

Row | Molecule | T1/2 (half-life, deamidation) [days]
16 | B16 | 320

Same assay, conditions: pH 7.4

Row | Molecule | T1/10 (time to 10% degradation by deamidation) [days]
17 | B16 | 49

Same assay, conditions: pH 7.4, 37° C., […] Tris.HCl buffer

Row | Molecule | time to lose 10% potency
18 | B14 | about 3.6 hours
